Our source for the Kd values is PMC11908486.

This experiment has as its target bACE2_(Ra5538)-Fc (Rhinolophus affinis). The experiment can be described thus: BLI.

pKd: −log10 of the molar value.

“SARS-CoV-2-RBD-monomer (from UniProt P0DTC2) (domain or fragment)” gave a pKd of 6.15.
